PMC3616908

B1: N-terminal Rad9 CAD region (yeast two-hybrid fusion) [S. cerevisiae] / Chk1 (yeast two-hybrid fusion) [S. cerevisiae] (parent)
chain 1: MSGQLVQWKSSPDRVTQSAIKEALHSPLADGDMNEMNVPVDPLENKVNSTNIIEGSPKANPNPVKFMNTSEIFQKSLGLLDESPRHDDELNIEVGDNDRPNANILHNERTPDLDRIANFFKSNRTPGKENLLTKYQSSDLEDTPLMLRKKMTFQTPTDPLEQKTFKKLKSDTGFCYYGEQNDGEENASLEVTEADATFVQMAERSADNYDCALEGIVTPKRYKDELSKSGG
chain 2: MSLSQVSPLPHIKDVVLGDTVGQGAFACVKNAHLQMDPSIILAVKFIHVPTCKKMGLSDKDITKEVVLQSKCSKHPNVLRLIDCNVSKEYMWIILEMADGGDLFDKIEPDVGVDSDVAQFYFQQLVSAINYLHVECGVAHRDIKPENILLDKNGNLKLADFGLASQFRRKDGTLRVSMDQRGSPPYMAPEVLYSEEGYYADRTDIWSIGILLFVLLTGQTPWELPSLENEDFVFFIENDGNLNWGPWSKIEFTHLNLLRKILQPDPNKRVTLKALKLHPWVLRRASFSGDDGLCNDPELLAKKLFSHLKVSLSNENYLKFTQDTNSNNRYISTQPIGNELAELEHDSMHFQTVSNTQRAFTSYDSNTNYNSGTGMTQEAKWTQFISYDIAALQFHSDENDCNELVKRHLQFNPNKLTKFYTLQPMDVLLPILEKALNLSQIRVKPDLFANFERLCELLGYDNVFPLIINIKTKSNGGYQLCGSISIIKIEEELKSVGFERKTGDPLEWRRLFKKISTICRDIILIPN

Variants of: B1
Experiment: yeast two-hybrid (β-galactosidase activity)
Settings: with Chk1 (yeast two-hybrid fusion) [S. cerevisiae]; parent: 1; read off a plot

response [AU] | Variant
0.18 | chain 1 MSGQLVQWKSAPDRVTQSAIKEALHAPLADGDMNEMNVPVDPLENKVNSTNIIEGSPKANPNPVKFMNTSEIFQKSLGLLDEAPRHDDELNIEVGDNDRPNANILHNERAPDLDRIANFFKSNRAPGKENLLTKYQSSDLEDAPLMLRKKMTFQAPTDPLEQKTFKKLKSDTGFCYYGEQNDGEENASLEVTEADATFVQMAERSADNYDCALEGIVAPKRYKDELSKSGG [chain 1 S11A S26A S83A T110A T125A T143A T155A T218A]
0.59 | chain 1 MSGQLVQWKSAPDRVTQSAIKEALHAPLADGDMNEMNVPVDPLENKVNSTNIIEGAPKANPNPVKFMNTSEIFQKSLGLLDEAPRHDDELNIEVGDNDRPNANILHNERAPDLDRIANFFKSNRTPGKENLLTKYQSSDLEDAPLMLRKKMTFQAPTDPLEQKTFKKLKSDTGFCYYGEQNDGEENASLEVTEADATFVQMAERSADNYDCALEGIVAPKRYKDELSKSGG [chain 1 S11A S26A S56A S83A T110A T143A T155A T218A]
0.2 | chain 1 MSGQLVQWKSAPDRVTQSAIKEALHAPLADGDMNEMNVPVDPLENKVNSTNIIEGAPKANPNPVKFMNTSEIFQKSLGLLDEAPRHDDELNIEVGDNDRPNANILHNERTPDLDRIANFFKSNRAPGKENLLTKYQSSDLEDAPLMLRKKMTFQAPTDPLEQKTFKKLKSDTGFCYYGEQNDGEENASLEVTEADATFVQMAERSADNYDCALEGIVAPKRYKDELSKSGG [chain 1 S11A S26A S56A S83A T125A T143A T155A T218A]
0.14 | chain 1 MSGQLVQWKSAPDRVTQSAIKEALHSPLADGDMNEMNVPVDPLENKVNSTNIIEGAPKANPNPVKFMNTSEIFQKSLGLLDEAPRHDDELNIEVGDNDRPNANILHNERAPDLDRIANFFKSNRAPGKENLLTKYQSSDLEDAPLMLRKKMTFQAPTDPLEQKTFKKLKSDTGFCYYGEQNDGEENASLEVTEADATFVQMAERSADNYDCALEGIVAPKRYKDELSKSGG [chain 1 S11A S56A S83A T110A T125A T143A T155A T218A]

The remaining lines, values behind:

Variant | response [AU]
chain 1 MSGQLVQWKSSPDRVTQSAIKEALHAPLADGDMNEMNVPVDPLENKVNSTNIIEGAPKANPNPVKFMNTSEIFQKSLGLLDEAPRHDDELNIEVGDNDRPNANILHNERAPDLDRIANFFKSNRAPGKENLLTKYQSSDLEDAPLMLRKKMTFQAPTDPLEQKTFKKLKSDTGFCYYGEQNDGEENASLEVTEADATFVQMAERSADNYDCALEGIVAPKRYKDELSKSGG [chain 1 S26A S56A S83A T110A T125A T143A T155A T218A] | 0.22
chain 1 MSGQLVQWKSAPDRVTQSAIKEALHAPLADGDMNEMNVPVDPLENKVNSTNIIEGAPKANPNPVKFMNTSEIFQKSLGLLDEAPRHDDELNIEVGDNDRPNANILHNERAPDLDRIANFFKSNRAPGKENLLTKYQSSDLEDTPLMLRKKMTFQAPTDPLEQKTFKKLKSDTGFCYYGEQNDGEENASLEVTEADATFVQMAERSADNYDCALEGIVAPKRYKDELSKSGG [chain 1 S11A S26A S56A S83A T110A T125A T155A T218A] | 0.8
chain 1 MSGQLVQWKSAPDRVTQSAIKEALHAPLADGDMNEMNVPVDPLENKVNSTNIIEGAPKANPNPVKFMNTSEIFQKSLGLLDEAPRHDDELNIEVGDNDRPNANILHNERAPDLDRIANFFKSNRAPGKENLLTKYQSSDLEDAPLMLRKKMTFQTPTDPLEQKTFKKLKSDTGFCYYGEQNDGEENASLEVTEADATFVQMAERSADNYDCALEGIVAPKRYKDELSKSGG [chain 1 S11A S26A S56A S83A T110A T125A T143A T218A] | 0.28
chain 1 MSGQLVQWKSAPDRVTQSAIKEALHAPLADGDMNEMNVPVDPLENKVNSTNIIEGAPKANPNPVKFMNTSEIFQKSLGLLDEAPRHDDELNIEVGDNDRPNANILHNERAPDLDRIANFFKSNRAPGKENLLTKYQSSDLEDAPLMLRKKMTFQAPTDPLEQKTFKKLKSDTGFCYYGEQNDGEENASLEVTEADATFVQMAERSADNYDCALEGIVTPKRYKDELSKSGG [chain 1 S11A S26A S56A S83A T110A T125A T143A T155A] | 0.15
chain 1 MSGQLVQWKSAPDRVTQSAIKEALHAPLADGDMNEMNVPVDPLENKVNSTNIIEGAPKANPNPVKFMNTSEIFQKSLGLLDESPRHDDELNIEVGDNDRPNANILHNERAPDLDRIANFFKSNRAPGKENLLTKYQSSDLEDAPLMLRKKMTFQAPTDPLEQKTFKKLKSDTGFCYYGEQNDGEENASLEVTEADATFVQMAERSADNYDCALEGIVAPKRYKDELSKSGG [chain 1 S11A S26A S56A T110A T125A T143A T155A T218A] | 0.18
chain 1 MSGQLVQWKSAPDRVTQSAIKEALHAPLADGDMNEMNVPVDPLENKVNSTNIIEGAPKANPNPVKFMNTSEIFQKSLGLLDEAPRHDDELNIEVGDNDRPNANILHNERAPDLDRIANFFKSNRAPGKENLLTKYQSSDLEDAPLMLRKKMTFQAPTDPLEQKTFKKLKSDTGFCYYGEQNDGEENASLEVTEADATFVQMAERSADNYDCALEGIVAPKRYKDELSKSGG [chain 1 S11A S26A S56A S83A T110A T125A T143A T155A T218A] | 0.07
